From paper PMC12221297, “Negative regulation of miRNA sorting into EVs is mediated by the capacity of RBP PCBP2 to impair the SYNCRIP-dependent miRNA loading”

Molecular target: PCBP2 recombinant (Origene TP522190) (Mus musculus, UniProt Q61990 1-362)
Test: pull-down; EMSA: REMSA binding buffer (LightShift kit), 4 ug extract, 0.5 pmol biotin-RNA, 30 min room temperature, native 6% PAGE 0.5x TBE; pull-down: streptavidin beads
Conditions: protein: commercial; label: 5' biotin

Chain of PCBP2 recombinant (Origene TP522190) (Q61990 whole entry): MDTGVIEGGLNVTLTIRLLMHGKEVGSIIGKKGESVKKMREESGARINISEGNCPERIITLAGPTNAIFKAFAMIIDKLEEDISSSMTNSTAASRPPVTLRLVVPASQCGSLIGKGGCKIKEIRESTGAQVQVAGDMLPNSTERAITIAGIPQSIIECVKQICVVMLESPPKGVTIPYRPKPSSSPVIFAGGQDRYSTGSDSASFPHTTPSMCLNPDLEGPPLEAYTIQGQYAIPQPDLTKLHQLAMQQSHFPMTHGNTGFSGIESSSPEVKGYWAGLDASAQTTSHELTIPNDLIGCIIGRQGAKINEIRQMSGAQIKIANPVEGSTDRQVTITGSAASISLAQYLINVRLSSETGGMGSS

Question: Does CUCCUACCUGUUAGCAUUAAC (ssRNA) [miR-155-3p WT (Table 1: miR-155b-3p WT)] bind?
Answer: binds
